{
  "source": "paper PMC10060833",
  "molecular_target": "recombinant HAdV55 fiber protein (human adenovirus type 55 (HAdV55))",
  "experiment": "SDS-PAGE without heating or reducing agent; purified recombinant fiber in loading buffer with 10% SDS, without beta-ME, kept at room temperature for 5 min (\"Non-reducing\")",
  "data": [
    {"substance": "recombinant HAdV55 fiber protein (natural protein)", "values": [
      {"measurement": "stoichiometry N", "value": 3}
    ]}
  ]
}
